Data from patent publication US20190338048A1 (published 2019).
Like-named read-outs stand apart in the source and are kept apart here.

Experiments:
[1] = biological target: Pertuzumab heavy chain Fab construct (H2) Q39E (VH Q39E); experiment: LCCA, SPR tag read-out
[2] = biological target: CAT-2200 heavy chain Fab construct (H1) Q39K (VH Q39K); experiment: LCCA, SPR tag read-out
[3] = biological target: Pertuzumab heavy chain Fab construct (H2) Q39D (VH Q39D); experiment: LCCA, SPR tag read-out
[4] = biological target: CAT-2200 heavy chain Fab construct (H1), wild type; experiment: LCCA, SPR tag read-out
[5] = biological target: Pertuzumab heavy chain Fab construct (H2) Q39E (VH Q39E); experiment: LCCA, SPR tag read-out; remark: listed apart in the source
[6] = biological target: Pertuzumab heavy chain Fab construct (H2) Q39D (VH Q39D); experiment: LCCA, SPR tag read-out; remark: listed apart in the source
[7] = biological target: Pertuzumab heavy chain Fab construct (H2) Q39E (VH Q39E); experiment: LCCA, SPR tag read-out; remark: listed apart in the source
[8] = biological target: CAT-2200 heavy chain Fab construct (H1) Q39K (VH Q39K); experiment: LCCA, SPR tag read-out; remark: listed apart in the source
[9] = biological target: Pertuzumab heavy chain Fab construct (H2) Q39D (VH Q39D); experiment: LCCA, SPR tag read-out; remark: listed apart in the source
Recombinant human IL-17A [10] = biological target: Recombinant human IL-17A (human, UniProt Q16552 20-155, limits assumed); experiment: SPR
Target sequence in this assay (Q16552 20-155 limits assumed): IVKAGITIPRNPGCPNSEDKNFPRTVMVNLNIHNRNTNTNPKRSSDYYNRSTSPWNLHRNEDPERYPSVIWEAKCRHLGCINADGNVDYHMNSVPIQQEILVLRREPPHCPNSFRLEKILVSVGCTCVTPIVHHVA

[11] = biological target: CAT-2200 heavy chain Fab construct (H1) Q39R (VH Q39R); experiment: LCCA, SPR tag read-out
[12] = biological target: CAT-2200 heavy chain Fab construct (H1) Q39R (VH Q39R); experiment: LCCA, SPR tag read-out; remark: listed apart in the source
[13] = biological target: T1, Recombinant HER2 protein (HER2-ECD) (UniProt P04626 23-652, limits assumed); experiment: SPR, Fab captured, HER2 as analyte
[14] = biological target: T1, Recombinant HER2 protein (HER2-ECD); experiment: SPR
[15] = biological target: T2, His-tagged recombinant human CD-19 (human, UniProt P15391 20-291, limits assumed); experiment: SPR
T2 sequence (looked up): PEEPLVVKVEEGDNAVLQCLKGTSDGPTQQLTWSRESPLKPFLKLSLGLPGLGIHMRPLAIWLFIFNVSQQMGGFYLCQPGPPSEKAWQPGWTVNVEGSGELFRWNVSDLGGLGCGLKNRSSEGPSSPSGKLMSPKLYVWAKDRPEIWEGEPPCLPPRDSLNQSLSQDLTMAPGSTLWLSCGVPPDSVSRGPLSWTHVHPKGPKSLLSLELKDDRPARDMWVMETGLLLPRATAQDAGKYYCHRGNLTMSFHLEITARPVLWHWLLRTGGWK

Recombinant human IL-17A [16] = biological target: Recombinant human IL-17A (human, UniProt Q16552 20-155, limits assumed); experiment: SPR; remark: listed apart in the source
Target sequence in this assay (Q16552 20-155 limits assumed): as the sequence (Q16552 20-155 limits assumed) above

Recombinant human IL-17A [17] = biological target: Recombinant human IL-17A (human, UniProt Q16552 20-155, limits assumed); experiment: SPR; remark: listed apart in the source
Target sequence in this assay (Q16552 20-155 limits assumed): as the sequence (Q16552 20-155 limits assumed) above

[18] = biological target: T3, His-tagged recombinant human CD-19 (human, UniProt P15391 20-291, limits assumed); experiment: SPR; remark: listed apart in the source
T3 sequence (looked up): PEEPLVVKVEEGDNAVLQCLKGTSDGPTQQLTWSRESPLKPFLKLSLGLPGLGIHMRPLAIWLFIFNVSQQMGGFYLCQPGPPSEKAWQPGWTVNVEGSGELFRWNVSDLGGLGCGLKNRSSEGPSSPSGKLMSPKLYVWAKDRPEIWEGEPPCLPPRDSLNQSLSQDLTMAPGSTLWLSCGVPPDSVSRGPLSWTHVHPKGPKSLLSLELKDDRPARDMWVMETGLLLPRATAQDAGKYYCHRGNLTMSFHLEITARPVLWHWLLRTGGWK

[19] = biological target: His-tagged Influenza B Hemagglutinin (B/Brisbane/60/2008) (Influenza B virus (B/Brisbane/60/2008)); experiment: SPR
[20] = biological target: T3, His-tagged recombinant human CD-19; experiment: SPR; remark: listed apart in the source

B1: Pertuzumab kappa light chain construct (L2) Q38K, HA-tagged (other, not shown: small tags and cut ends)
light: DIQMTQSPSSLSASVGDRVTITCKASQDVSIGVAWYQKKPGKAPKLLIYSASYRYTGVPSRFSGSGSGTDFTLTISSLQPEDFATYYCQQYYIYPYTFGQGTKVEIKRTVAAPSVFIFPPSDEQLKSGTASVVCLLNNFYPREAKVQWKVDNALQSGNSQESVTEQDSKDSTYSLSSTLTLSKADYEKHKVYACEVTHQGLSSPVTKSFNRGEC
B1 was tested, and the “H2L2:H2L1 normalized median ratio (H2L2 part)” value [1] was 78%, the “H2L2:H2L1 normalized median scalar value ln(r1/f1)” value [1] was 1.29 and the “H1L1:H1L2 normalized median ratio (H1L2 part)” value [2] was 35%. For the same binder, the “H2L2:H2L1 normalized median ratio (H2L2 part)” value [3] was 79%, the “H2L2:H2L1 normalized median scalar value ln(r1/f1)” value [3] was 1.35 and the “H1L1:H1L2 normalized median ratio (H1L2 part)” value [4] was 33%. For the same binder, the “H2L2:H2L1 normalized median ratio (H2L2 part)” value [5] was 47%, the “H2L2:H2L1 normalized median scalar value ln(r1/f1)” value [5] was -0.11 and the “H2L2:H2L1 normalized median ratio (H2L2 part)” value [6] was 47%. For the same binder, the “H2L2:H2L1 normalized median scalar value ln(r1/f1)” value [6] was -0.11, the “H2L2:H2L1 normalized median ratio (H2L2 part)” value [7] was 75% and the “H2L2:H2L1 normalized median scalar value ln(r1/f1)” value [7] was 1.09. For the same binder, the “H1L1:H1L2 normalized median ratio (H1L2 part)” value [8] was 29%, the “H2L2:H2L1 normalized median ratio (H2L2 part)” value [9] was 75% and the “H2L2:H2L1 normalized median scalar value ln(r1/f1)” value [9] was 1.09.

B2: Design 4320 bispecific antibody, System A (CAT-2200 H1/L1 & Pertuzumab H2/L2) (bispecific antibody)
chain 1: not shown
chain 2: NFMLTQPHSVSESPGKTVTISCTRSSGSLANYYVQWYQQRPGSSPTIVIFANNQRPSGVPDRFSGSIDSSSNSASLTISGLKTEDEADYYCQTYDPYSVVFGGGTKLTVLGQPKAAPSVFLFPPSSEELQANTATLDCLISDFYPGAVTVAWKADSSPVKAGVETTTPSKQSNNKYAAFSYLSLTPEQWKSHRSYSCQVTHEGSTVEKTVAPTECS
chain 3: not shown
chain 4: DIQMTQSPSSLSASVGDRVTITCKASQDVSIGVAWYQQKPGKAPKLLIYSASYRYTGVPSRFSGSGSGTDFTLTISSLQPEDFATYYCQQYYIYPYTFGQGTKVEIKRTVAAPSVFIFPPSDEKLKSGTASVVCALNNFYPREAKVQWKVDNALQSGNSQESVTEQDSKDSTYSLSSRLTLSKADYEKHKVYACEVTHQGLSSPVTKSFNRGEC
B2 showed a Kd (Recombinant human IL-17A [10]) of 0.36 nM.

B3: Pertuzumab kappa light chain construct (L2) Q38R, HA-tagged (other, not shown: small tags and cut ends)
light: DIQMTQSPSSLSASVGDRVTITCKASQDVSIGVAWYQRKPGKAPKLLIYSASYRYTGVPSRFSGSGSGTDFTLTISSLQPEDFATYYCQQYYIYPYTFGQGTKVEIKRTVAAPSVFIFPPSDEQLKSGTASVVCLLNNFYPREAKVQWKVDNALQSGNSQESVTEQDSKDSTYSLSSTLTLSKADYEKHKVYACEVTHQGLSSPVTKSFNRGEC
B3 was tested, and the “H2L2:H2L1 normalized median ratio (H2L2 part)” value [1] was 77%, the “H2L2:H2L1 normalized median scalar value ln(r1/f1)” value [1] was 1.19 and the “H2L2:H2L1 normalized median ratio (H2L2 part)” value [3] was 92%. The “H2L2:H2L1 normalized median scalar value ln(r1/f1)” value [3] was 2.47, the “H1L1:H1L2 normalized median ratio (H1L2 part)” value [11] was 28% and the “H1L1:H1L2 normalized median ratio (H1L2 part)” value [4] was 26%. For the same binder, the “H2L2:H2L1 normalized median ratio (H2L2 part)” value [5] was 48%, the “H2L2:H2L1 normalized median scalar value ln(r1/f1)” value [5] was -0.08 and the “H2L2:H2L1 normalized median ratio (H2L2 part)” value [6] was 49%. For the same binder, the “H2L2:H2L1 normalized median scalar value ln(r1/f1)” value [6] was -0.03, the “H2L2:H2L1 normalized median ratio (H2L2 part)” value [7] was 73% and the “H2L2:H2L1 normalized median scalar value ln(r1/f1)” value [7] was 1.02. For the same binder, the “H2L2:H2L1 normalized median ratio (H2L2 part)” value [9] was 77%, the “H2L2:H2L1 normalized median scalar value ln(r1/f1)” value [9] was 1.19 and the “H1L1:H1L2 normalized median ratio (H1L2 part)” value [12] was 23%.

B4: Pertuzumab Fab heterodimer H2L2 of design 10674-10749 (H2 Q39K, L2 Q38E) (Fab, name in Kabat numbering, V domains shown, not shown: small tags and cut ends)
VH: EVQLVESGGGLVQPGGSLRLSCAASGFTFTDYTMDWVRKAPGKGLEWVADVNPNSGGSIYNQRFKGRFTLSVDRSKNTLYLQMNSLRAEDTAVYYCARNLGPSFYFDYWGQGTLVTVSS
VL: DIQMTQSPSSLSASVGDRVTITCKASQDVSIGVAWYQEKPGKAPKLLIYSASYRYTGVPSRFSGSGSGTDFTLTISSLQPEDFATYYCQQYYIYPYTFGQGTKVEIKR
For B4, the “Change in KD of H2L2 Fab vs wild type, -(log(KD_design)-log(KD_wt))” value [13] was 0.12 log(KD) difference and the Kd [14] was 6.09 nM.

B5: Design 4040 SGN-CD19a H2L2 arm in OAA (one-armed antibody) format (antibody, V domains shown)
VH: QVTLRESGPALVKPTQTLTLTCTFSGFSLSTSGMGVGWIRQPPGKAPEWLAHIWWDDDKRYNPALKSRLTISKDTSKNQVVLTMTNMDPVDTAAYYCARMELWSYYFDYWGQGTLVTVSS
VL: EIVLTQSPATLSLSPGERATLSCSASSSVSYMHWYQQKPGQAFRLLIYDTSKLASGIPARFSGSGSGTDFTLTISSLEPEDFAVYYCFQGSVYPFTFGQGTKLEIKR
B5 showed a Kd [15] of 22.4 nM.

B6: CAT-2200 Fab heterodimer H1L1, no pairing substitutions (wild-type H1 and L1), light chain with FLAG tag (Fab, V domains shown, not shown: small tags and cut ends)
VH: not shown
VL: NFMLTQPHSVSESPGKTVTISCTRSSGSLANYYVQWYQQRPGSSPTIVIFANNQRPSGVPDRFSGSIDSSSNSASLTISGLKTEDEADYYCQTYDPYSVVFGGGTKLTVLG
For B6, the “Change in KD of H1L1 Fab vs wild type” value (Recombinant human IL-17A [16]) was 0.

B7: CAT-2200 Fab heterodimer H1L1 of designs 10662-10731 and 10662-10733 (H1 L45F, L1 unmodified) (Fab, name in Kabat numbering, V domains shown, not shown: small tags and cut ends)
VH: EVQLLESGGGLVQPGGSLRLSCAASGFTFSSYAMSWVRQAPGKGFEWVSAISGSGGSTYYADSVKGRFTISRDNSKNTLYLQMNSLRAEDTAVYYCARDLIHGVTRNWGQGTLVTVSS
VL: NFMLTQPHSVSESPGKTVTISCTRSSGSLANYYVQWYQQRPGSSPTIVIFANNQRPSGVPDRFSGSIDSSSNSASLTISGLKTEDEADYYCQTYDPYSVVFGGGTKLTVLG
B7 showed a Kd (Recombinant human IL-17A [17]) of 0.29 nM.

B8: Design 2979 bispecific antibody, System C (CR8071 H1/L1 & SGN-CD19a H2/L2) (bispecific antibody)
chain 1: QVQLVQSGAEVKKPGASVRVSCRASGYIFTESGITWVRQAPGQGLEWMGWISGYSGDTKYAQKLQGRVTMTKDTSTTTAYMELRSLRYDDTAVYYCARDVQYSGSYLGAYYFDYWSPGTLVTVSSASTKGPSVFPLAPSSKSTSGGTAALGCLVKDYFPEPVTVSWNSGALTSGVHTFPAVLQSSGLYSLKSVVTVPSSSLGTQTYICNVNHKPSNTKVDKKVEPKSCDKTHTCPPCPAPELLGGPSVFLFPPKPKDTLMISRTPEVTCVVVDVSHEDPEVKFNWYVDGVEVHNAKTKPREEQYNSTYRVVSVLTVLHQDWLNGKEYKCKVSNKALPAPIEKTISKAKGQPREPQVYVYPPSRDELTKNQVSLTCLVKGFYPSDIAVEWESNGQPENNYKTTPPVLDSDGSFALVSKLTVDKSRWQQGNVFSCSVMHEALHNHYTQKSLSLSPG
chain 2: not shown
chain 3: not shown
chain 4: EIVLTQSPATLSLSPGERATLSCSASSSVSYMHWYQQKPGQAPRLLIYDTSKLASGIPARFSGSGSGTDFTLTISSLEPEDFAVYYCFQGSVYPFTFGQGTKLEIKRTVAAPSVFIFPPSDEQLKSGTARVGCLLNNFYPREAKVQWKVDNALQSGNSQESVTEQDSKDSTYSLRSTLTLSKADYEKHKVYACEVTHQGLSSPVTKSFNRGEC
With B8 the “Difference in H2L2 log(KD) from wild type” value [18] was 0.7, the Kd [19] was 0.93 nM and the Kd [20] was 45.1 nM.
